Like-named read-outs stand apart in the source and are kept apart here.
B1: CXCR4-AcGFP1 / CXCR4-mCherry (C-X-C motif chemokine receptor 4 with a C-terminal fluorescent protein), P61073 1-352 (receptor)
chain: MEGISIYTSDNYTEEMGSGDYDSMKEPCFREENANFNKIFLPTIYSIIFLTGIVGNGLVILVMGYQKKLRSMTDKYRLHLSVADLLFVITLPFWAVDAVANWYFGNFLCKAVHVIYTVNLYSSVLILAFISLDRYLAIVHATNSQRPRKLLAEKVVYVGVWIPALLLTIPDFIFANVSEADDRYICDRFYPNDLWVVVFQFQHIMVGLILPGIVILSCYCIIISKLSHSKGHQKRKALKTTVILILAFFACWLPYYIGISIDSFILLEIIKQGCEFENTVHKWISITEALAFFHCCLNPILYAFLGAKFKTSAQHALTSVSRGSSLKILSKGKRGGHSSVSTESESSSFHSS

Experiments:
Assay in all cases: PIE-FCCS
[1] = biological target: β2AR-AcGFP1 / β2AR-mCherry (β2-adrenergic receptor with a C-terminal fluorescent protein) (human) (UniProt P07550)
[2] = biological target: β2AR-AcGFP1 / β2AR-mCherry (β2-adrenergic receptor with a C-terminal fluorescent protein) (human) (UniProt P07550); remark: listed apart in the source
[3] = biological target: T1, CXCR4-AcGFP1 / CXCR4-mCherry (C-X-C motif chemokine receptor 4 with a C-terminal fluorescent protein) (human), P61073; conditions: remark: other sources report otherwise
T1 chain: B1 chain

[4] = biological target: T1, CXCR4-AcGFP1 / CXCR4-mCherry (C-X-C …); conditions: remark: other sources report otherwise

Molecule	fc [1]	fc [2]	mean fc [3]	median fc [3]	median fc [4]
β2AR-AcGFP1 / β2AR-mCherry (β2-adrenergic receptor with a C-terminal fluorescent protein) (from UniProt P07550 1-413)	0.13	0.11			
B1			0.39	0.31	0.18
